# In patent US11278600B2, “Human alpha-galactosidase variants” (Codexis, Inc., priority 2014, dated 2022):
# Substitutions are numbered along the chain they refer to.
# B1: 26 (protein)
# chain: LDNGLARTPTMGWLHWERFMCNLDCQEEPDSCISEKLFMEMAELMVSEGWKDAGYEYLCIDDCWMAPQRDSEGRLQADPQRFPHGIRQLANYVHSKGLKLGIYADVGNKTCAGFPGSFGYYDIDAQTFADWGVDLLKFDGCYCDSLENLADGYKHMSLALNRTGRSIVYSCEWPLYMWSFQKPNYTEIRQYCNHWRNFADIDDSWKSIKSILDWTSFNQERIVDVAGPGGWNDPDMLVIGNFGLSWNQQVTQMALWAIMAAPLFMSNDLRHISPQAKALLQDKDVIAINQDPLGKQGYQLRQGDNFEVWERPLSGLAWAVAMINRQEIGGPRSYTIAVASLGKGVACNPACFITQLLPVKRKLGFYEWTSRLKSHINPTGTVLLQLENTMQMSLKDLLL
# modifications: Synthetic Polypeptide sequence of Variant No. 26 of mature Human GLA
# B2: 27 (protein)
# chain: B1 chain with S179P, Q299R, M322V
# modifications: Synthetic Polypeptide sequence of Variant No. 27 of mature Human GLA
# B3: 28 (protein)
# chain: B1 chain with S179P, Q299R, Q302K
# modifications: Synthetic Polypeptide sequence of Variant No. 28 of mature Human GLA
# B4: 29 (protein)
# chain: B1 chain with S179P, Q299R, Q302K, I376V
# modifications: Synthetic Polypeptide sequence of Variant No. 29 of mature Human GLA
# B5: 30 (protein)
# chain: B1 chain with S179P, Q302K, K373R, I376V
# modifications: Synthetic Polypeptide sequence of Variant No. 30 of mature Human GLA
# B6: 31 (protein)
# chain: B1 chain with S179P
# modifications: Synthetic Polypeptide sequence of Variant No. 31 of mature Human GLA
# Experiment: HTP-analysis of yeast culture supernatants, no challenge (MUGal hydrolysis)
# Format: biochemical
# Settings: activity of the variant/activity of WT GLA (SEQ ID NO: 5), yeast supernatant
# Outline: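 Activity read as 4-methylumbelliferyl α-D-galactopyranoside hydrolysis: fluorescence (355/448 nm) after sodium carbonate stop, following 30-180 min at 37° C with 2 mM MUGal stock at pH 4.6–4.8. Enzyme source is unchallenged culture supernatant of INVSc1 yeast expressing GLA variants, grown 66-84 h at 30° C.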
row,Molecule,Relative Activity of GLA Variants After No Challenge (NC)
1,B1,+ (+ = 0.5 to 1.5 relative activity over WT GLA (SEQ ID NO: 5))
2,B2,+ (+ = 0.5 to 1.5 relative activity over WT GLA (SEQ ID NO: 5))
3,B3,+ (+ = 0.5 to 1.5 relative activity over WT GLA (SEQ ID NO: 5))
4,B4,+ (+ = 0.5 to 1.5 relative activity over WT GLA (SEQ ID NO: 5))
5,B5,+ (+ = 0.5 to 1.5 relative activity over WT GLA (SEQ ID NO: 5))
6,B6,+ (+ = 0.5 to 1.5 relative activity over WT GLA (SEQ ID NO: 5))

# Experiment: HTP-analysis of supernatants pretreated with acid (MUGal hydrolysis)
# Format: biochemical
# Settings: challenge at pH 4.3; activity of the variant/activity of WT GLA (SEQ ID NO: 5); yeast supernatant
# Outline: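 MUGal hydrolysis was tracked by fluorescence (Ex 355 nm, Em 448 nm) after a 30-180 min reaction at 37° C. in pH 4.8 McIlvaine/citrate buffer, stopped with 1 M sodium carbonate. Beforehand, yeast (INVSc1) culture supernatants carrying GLA variants were held 1-3 h at 37° C. in acidic McIlvaine buffer, pH 3.3-4.3.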
row,Molecule,Relative Activity of GLA Variants After Challenge at pH 4.3
1,B1,+ (+ = 0.5 to 1.5 relative activity over WT GLA (SEQ ID NO: 5))
2,B2,+ (+ = 0.5 to 1.5 relative activity over WT GLA (SEQ ID NO: 5))
3,B3,+ (+ = 0.5 to 1.5 relative activity over WT GLA (SEQ ID NO: 5))
4,B4,+ (+ = 0.5 to 1.5 relative activity over WT GLA (SEQ ID NO: 5))
5,B5,++ (++ = >1.5 to 2.5 relative activity over WT GLA (SEQ ID NO: 5))
6,B6,+ (+ = 0.5 to 1.5 relative activity over WT GLA (SEQ ID NO: 5))

# Experiment: HTP-analysis of supernatants pretreated with base (MUGal hydrolysis)
# Format: biochemical
# Settings: challenge at pH 7.0; activity of the variant/activity of WT GLA (SEQ ID NO: 5); yeast supernatant
# Outline: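 Supernatants from INVSc1 yeast expressing GLA variants (SD-Ura, 66-84 h, 30° C) were mixed with McIlvaine buffer pH 7.0-8.2 or 200 mM sodium bicarbonate pH 9.1-9.7 and held 1-18 h at 37° C. Residual activity was then measured on MUGal at pH 4.8/4.3, 37° C, 30-180 min, by fluorescence (Ex 355/Em 448 nm).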
row,Molecule,Relative Activity of GLA Variants After Challenge at pH 7.0
1,B1,+ (+ = 0.5 to 1.5 relative activity over WT GLA (SEQ ID NO: 5))
2,B2,+ (+ = 0.5 to 1.5 relative activity over WT GLA (SEQ ID NO: 5))
3,B3,+ (+ = 0.5 to 1.5 relative activity over WT GLA (SEQ ID NO: 5))
4,B4,+ (+ = 0.5 to 1.5 relative activity over WT GLA (SEQ ID NO: 5))
5,B5,+ (+ = 0.5 to 1.5 relative activity over WT GLA (SEQ ID NO: 5))
6,B6,+ (+ = 0.5 to 1.5 relative activity over WT GLA (SEQ ID NO: 5))
